One molecule from US20190183138A1, “MILK COAGULANT AND METHOD FOR PRODUCING CHEESE” (CHINA AGRICULTURAL UNIVERSITY, priority 2017, published 2019) can be followed below.

The subject of the data set is 12% skim milk. In words: Milk clotting activity (MCA) assay, curd formation time. Type of data set: biochemical. As to conditions: 12% skim milk in 10 mM CaCl2, pH 6.5, 37° C.; FIG. 5. How it is done:
The MCA of the C. otophyllum proteases was determined using a modified method of He et al. (2011). One milliliter of substrate (12% skim milk in 10 mM CaCl2, pH 6.5) was incubated under 37° C. for 5 min, then 0.1 mL of the protease extracted solution was added. The time needed for curd formation was recorded and the MCA was expressed in Soxhlet units (SU). One SU of MCA was defined as the amount of the protease extracted solution required to clot 1 mL of substrate within 40 min at 37° C.
where V stands for the volume of the substrate (mL); v stands for the volume of the protease extract; and t stands for the milk-clotting time (s).
The C. otophyllum proteases were extracted as described by Huang et al. (2011) with some modifications. The C. otophyllum leaves were cut into pieces, mixed with a buffer at different solid-liquid ratios (i.e. ratio of mass to volume) for extraction, and then left for 2 h under 4° C., thus obtaining an extracted solution. After successive filtration through 4 layers of cheesecloth and a 0.22-μm membrane, the filtrate was concentrated by ultrafiltration with a 10-kDa molecular weight cut-off membrane at 8000 × g for 40 minutes at 4° C., with the retentate obtained as the concentrated solution of C. otophyllum proteases, which was assayed for protein concentration following the method of Bradford (1976) and curd formation time for 12% (w/v) skim milk.

B1: papain (protein, UniProt P00784 134-345, looked up)
Papain: IPEYVDWRQKGAVTPVKNQGSCGSCWAFSAVVTIEGIIKIRTGNLNEYSEQELLDCDRRSYGCNGGYPWSALQLVAQYGIHYRNTYPYEGVQRYCRSREKGPYAAKTDGVRQVQPYNEGALLYSIANQPVSVVLEAAGKDFQLYRGGIFVGPCGNKVDHAVAAVGYGPNYILIKNSWGTGWGENGYIRIKRGTGNSYGVCGLYTSSFYPVKN
notes: cysteine protease from Sigma-Aldrich used as comparison
For the molecule B1, the “MCA (milk-clotting activity)” value amounted to 100.2 SU/mg.
